The labels stand for the following.
T1: IscR (His-tagged) (Comamonas testosteroni S44, UniProt A0A0L7MDB4 1-178)
T1 sequence: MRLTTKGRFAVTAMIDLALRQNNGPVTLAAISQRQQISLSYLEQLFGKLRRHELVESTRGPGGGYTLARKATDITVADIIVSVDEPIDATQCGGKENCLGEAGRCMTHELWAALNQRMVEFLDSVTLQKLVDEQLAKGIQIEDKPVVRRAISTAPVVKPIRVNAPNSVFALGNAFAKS

B1: Site A* 30-bp (dsDNA)
DNA 1: CTGTTACCCGACAAAGCTGGCGGGGAATGT
DNA 2: ACATTCCCCGCCAGCTTTGTCGGGTAACAG
B2: Site A 30-bp (dsDNA)
DNA 1: CTGTTACCCGACAAAATTGATGGGGAATGT
DNA 2: ACATTCCCCATCAATTTTGTCGGGTAACAG
B3: Site B 30-bp (dsDNA)
DNA 1: GATATACTCGCCTCAAACACTCAACAACAA
DNA 2: TTGTTGTTGAGTGTTTGAGGCGAGTATATC
B4: Site B* 30-bp (dsDNA)
DNA 1: GATGCGCTCGCCTCAAACACTCAACAACAA
DNA 2: TTGTTGTTGAGTGTTTGAGGCGAGCGCATC

The target of this series is T1, IscR (His-tagged). Briefly: EMSA; 100 mM HEPES pH 7.6, 5 mM EDTA, 50 mM (NH4)2SO4, 5 mM DTT, 1% (w/v) Tween 20, 150 mM KCl; 30 min at 30 C; 20 uL; 6% native PAGE, ethidium bromide. The note with it: protein: recombinant; tags: His-tag (pET-28a(+)); chain copies: 2. On the technique in general: Mobility shift assays separate free from complexed probe on a gel.
B1: the binding result is on record as “no binding”.

Turning to B2, the binding result is reported as “binds”.

For the molecule B3, the binding result is given as “binds”.

On to B4, for which the binding result was “no binding”.
